The chains are these.
B6: TPR domain (residues 166–330) of human AIP (aryl hydrocarbon receptor interacting protein), wild type (domain or fragment, UniProt O00170 166-330, looked up)
chain: DPWAMTDEEKAKAVPLIHQEGNRLYREGHVKEAAAKYYDAIACLKNLQMKEQPGSPEWIQLDQQITPLLLNYCQCKLVVEEYYEVLDHCSSILNKYDDNVKAYFKRGKAHAAVWNAQEAQADFAKVLELDPALAPVVSRELRALEARIRQKDEEDKARFRGIFSH
notes: Residues Asp 172 to Arg 325 were visible in the TOMM20 peptide structure; also called AIP TPR-domain; WT

Several values for one entry are separate records, joined by “and”; a condition that tells them apart may be missing. Identical values can stand only once. Like-named read-outs stand apart in the source and are kept apart here. Where no end group is shown, it is not given here.

Series [1] deals with T1, full-length human HSP90β (human, UniProt P08238 1-724).
T1 construct: HSP90β, human, full length; also called FL-hHSP90β; intact HSP90
The series can be described thus: ITC; twenty 1.9 µL aliquots of AIP TPR-domain at 350 µM injected into 30 µM human HSP90β; 20 mM Tris pH 7.5, 5 mM NaCl, 30°C.

The target in series [2] is T2, TPR domain (residues 166–330) of human AIP, WT (Homo sapiens, UniProt O00170).
T2 construct: The TPR domain (residues 166–330) of human AIP; His tag (PreScission cleavable) (cleaved yes); made in house
T2 sequence (O00170 166-330): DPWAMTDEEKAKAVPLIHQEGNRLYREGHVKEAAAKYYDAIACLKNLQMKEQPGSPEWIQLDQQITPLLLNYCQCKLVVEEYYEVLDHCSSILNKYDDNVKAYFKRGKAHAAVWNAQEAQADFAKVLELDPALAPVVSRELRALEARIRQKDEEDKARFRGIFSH
The series can be described thus: Isothermal titration calorimetry, wild-type AIP TPR-domain. The series is classed as binding. The note with it: ITC, range of the two titrations as given in the text. The method, then: (§1) The TPR domain (residues 166–330) of human AIP was expressed as a PreScission cleavable His-tagged protein from pTWO-E (pET-17b derived; personal communication, A. W. Oliver, Sussex University). The TPR domain was purified by talon-affinity chromatography (Clontech, Oxford, UK), then concentrated and desalted on a HIPrep 26/10 desalting column equilibrated in 20 mM Tris pH 7.5 containing 1 mM EDTA. The sample was then cleaved overnight with GST-tagged PreScision protease. The cleaved protein was subsequently passed through a GST column equilibrated in 20 mM Tris pH 7.5, 1 mM EDTA and 150 mM NaCl and then through a second Talon column to remove any remaining uncleaved protein. The flow through was then concentrated and subjected to superdex 75HR gel-filtration chromatography equilibrated in 20 mM Tris pH 7.5, 1 mM EDTA, 1 mM DTT and 500 mM NaCl. Pure TPR domain were concentrated and then desalted on a HIPrep 26/10 column equilibrated in 20 mM Tris pH 7.5 containing 1 mM EDTA. The protein was stored frozen at 2 mg ml^−1.
(§2) The heat of interaction was measured on an ITC200 microcalorimeter (Microcal), with a cell volume of 200 µL, under the same buffer conditions (20 mM Tris, pH 7.5, containing 5 mM NaCl) at 30°C. Twenty 1.9 µL aliquots of AIP TPR-domain at 350 µM were injected into 30 µM of human HSP90β. For peptide interactions twenty 1.9 µL aliquots of peptide ranging from 350 to 600 µM were injected into 30 µM of AIP TPR-domain. Heats of dilution were determined in a separate experiment by diluting protein or peptide into buffer, and the corrected data were fitted using a non-linear least-squares curve-fitting algorithm (Microcal Origin) with three floating variables: stoichiometry, binding constant and change in enthalpy of interaction. ATPase assays were previously described [44]–[46].
(In general: In ITC the heat of successive injections is recorded.)

Series [3] deals with T3, AIP TPR-domain R304A mutant (Homo sapiens, UniProt O00170, R304A).
T3 construct: The TPR domain (residues 166–330) of human AIP; His tag (PreScission cleavable) (cleaved yes); made in house
T3 sequence (O00170 166-330 R304A): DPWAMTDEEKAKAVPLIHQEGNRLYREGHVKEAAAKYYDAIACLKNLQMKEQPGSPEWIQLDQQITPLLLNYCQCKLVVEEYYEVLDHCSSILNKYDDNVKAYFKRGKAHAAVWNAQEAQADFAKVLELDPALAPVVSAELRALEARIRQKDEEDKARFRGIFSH
The experiment in a line: Isothermal titration calorimetry, R304A AIP TPR-domain. The series is classed as binding. The note with it: ITC, 20 mM Tris pH 7.5, 5 mM NaCl, 30°C, peptide 350-600 µM injected into 30 µM TPR-domain. The method, then: as §1, §2

The target in series [4] is T4, AIP TPR-domain R304Q mutant (Homo sapiens, UniProt O00170, R304Q).
T4 construct: The TPR domain (residues 166–330) of human AIP; His tag (PreScission cleavable) (cleaved yes); made in house
T4 sequence (O00170 166-330 R304Q): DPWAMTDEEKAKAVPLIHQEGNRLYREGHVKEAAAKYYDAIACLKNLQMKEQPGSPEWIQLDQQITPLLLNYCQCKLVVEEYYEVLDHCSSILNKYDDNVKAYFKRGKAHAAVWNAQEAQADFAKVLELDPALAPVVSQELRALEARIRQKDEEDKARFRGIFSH
The series can be described thus: Isothermal titration calorimetry, R304Q AIP TPR-domain. The class given is binding. The note with it: ITC, 20 mM Tris pH 7.5, 5 mM NaCl, 30°C, peptide 350-600 µM injected into 30 µM TPR-domain. The method, then: as §1, §2

Series [5] relates to AIP. The note with it: cited from earlier work. The text has this:
Recently, mutations in aryl hydrocarbon receptor interacting protein (AIP), [2] have been linked to familial isolated pituitary adenomas (FIPA) [3]–[5], a condition most often characterized by young-onset growth hormone and prolactin-secreting pituitary tumors (reviewed by), which leads to acromegaly and gigantism. The human AIP gene encodes a 37 kDa protein of 330 amino acids that, based on similarities to other proteins, is predicted to have an N-terminal immunophilin-like domain [7] and a C-terminal tetratricopeptide repeat (TPR) domain. Typically, TPR domains consist of ...

Series [6] addresses B6. The series can be described thus: ITC; twenty 1.9 µL aliquots of peptide (350 to 600 µM) injected into 30 µM AIP TPR-domain; 20 mM Tris pH 7.5, 5 mM NaCl, 30°C. Conditions: both partners purified.
Series [7] concerns the target TPR domain of human AIP, R304A mutant (human). The series is described as above.
Series [8] concerns the target T5, TPR domain of human AIP, R304Q (disease-associated missense mutation) (human).
T5 sequence (O00170 166-330 with R304Q, looked up): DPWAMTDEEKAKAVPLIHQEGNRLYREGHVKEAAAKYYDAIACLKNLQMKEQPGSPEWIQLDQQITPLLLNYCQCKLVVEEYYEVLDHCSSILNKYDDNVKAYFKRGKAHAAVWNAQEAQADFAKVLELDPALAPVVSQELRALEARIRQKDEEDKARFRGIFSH
The series is described as above.

In series [9] the test system is HSP90. The experiment in a line: HSP90 ATPase assay. The class given is biochemical. Conditions: 20-fold molar excess of full-length AIP.
In series [10] the target is T1, full-length human HSP90β. The series can be described thus: ITC; twenty 1.9 µL aliquots of AIP TPR-domain at 350 µM injected into 30 µM human HSP90β; 20 mM Tris pH 7.5, 5 mM NaCl, 30°C. Conditions: both partners purified.
Series [11] has as its target T1, full-length human HSP90β. The description is as above. Conditions: both partners purified. The source holds these as a separate data set.

T1 sequence (P08238 whole entry): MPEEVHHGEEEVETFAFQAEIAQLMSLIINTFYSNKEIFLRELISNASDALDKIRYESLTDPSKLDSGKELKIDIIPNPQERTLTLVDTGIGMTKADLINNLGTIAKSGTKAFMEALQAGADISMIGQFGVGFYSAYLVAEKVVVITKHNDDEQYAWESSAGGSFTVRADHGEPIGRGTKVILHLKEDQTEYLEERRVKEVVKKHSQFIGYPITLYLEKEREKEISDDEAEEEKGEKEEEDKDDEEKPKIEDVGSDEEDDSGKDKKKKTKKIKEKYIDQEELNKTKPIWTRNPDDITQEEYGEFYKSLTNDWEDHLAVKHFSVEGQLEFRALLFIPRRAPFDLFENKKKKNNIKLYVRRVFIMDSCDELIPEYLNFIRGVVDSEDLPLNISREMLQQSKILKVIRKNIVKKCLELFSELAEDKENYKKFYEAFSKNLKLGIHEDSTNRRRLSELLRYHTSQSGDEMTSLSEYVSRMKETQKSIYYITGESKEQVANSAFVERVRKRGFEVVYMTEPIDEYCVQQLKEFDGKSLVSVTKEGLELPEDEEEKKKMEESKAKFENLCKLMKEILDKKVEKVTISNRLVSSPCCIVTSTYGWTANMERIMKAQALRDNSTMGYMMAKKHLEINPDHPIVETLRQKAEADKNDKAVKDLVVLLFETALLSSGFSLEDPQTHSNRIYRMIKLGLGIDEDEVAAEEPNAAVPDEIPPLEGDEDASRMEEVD

Broadly, the Kd is a measure of binding affinity in units of concentration. The low end stands for higher affinity, the high end for lower affinity. A word on the stoichiometry N: it is the number of molecules, sites or subunits per partner or assembly. In series [1], “TPR domain of human AIP, E192R mutant (domain or fragment)” had a Kd of 11.1 µM, a dH of -4.11 kcal/mol and a stoichiometry N of 0.47.

On to `CSCC[C@H](NC(=O)[C@H](CCCNC(=N)N)NC(=O)[C@H](CO)NC(=O)[C@H](C)NC(=O)[C@H](CC(=O)O)NC(=O)[C@@H](N)CCC(=O)O)C(=O)N[C@@H](CCC(=O)O)C(=O)N[C@@H](CCC(=O)O)C(=O)N[C@H](C(=O)N[C@@H](CC(=O)O)C(=O)O)C(C)C` [EDASRMEEVD], for which the Kd in series [2] is 14.4 to 18.6 µM; in series [3], 15.6 ± 0.85 µM; in [4], 16.2 ± 1.1 µM.

Take `C=CC[C@@H]1/C=C(\C)C[C@H](C)C[C@H](OC)[C@H]2O[C@@](O)(C(=O)C(=O)N3CCCC[C@H]3C(=O)O[C@H](/C(C)=C/[C@@H]3CC[C@@H](O)[C@H](OC)C3)[C@H](C)[C@@H](O)CC1=O)[C@H](C)C[C@@H]2OC` [FK506]: in series [5], the “Binding to AIP” value is given as “does not bind”.

For AQSLAEDDVE [AQSLAEDDVE], the Kd in series [3] came out at 16.6 ± 0.5 µM; in [4], 22.5 ± 2.2 µM.

Turning to `CC[C@H](C)[C@H](NC(=O)[C@@H](NC(=O)[C@@H]1CCCN1C(=O)CNC(=O)[C@H](CO)NC(=O)CN)[C@@H](C)O)C(=O)N[C@@H](CCC(=O)O)C(=O)N[C@@H](CCC(=O)O)C(=O)N[C@H](C(=O)N[C@@H](CC(=O)O)C(=O)O)C(C)C` [GSGPTIEEVD], the dissociation constant (Kd) in series [3] turned out to be 22.8 ± 1.6 µM; in [4], 31.1 ± 2.6 µM.

`CO[C@H]1C[C@@H]2CC[C@@H](C)[C@@](O)(O2)C(=O)C(=O)N2CCCC[C@H]2C(=O)O[C@H]([C@H](C)C[C@@H]2CC[C@@H](O)[C@H](OC)C2)CC(=O)[C@H](C)/C=C(\C)[C@@H](O)[C@@H](OC)C(=O)[C@H](C)C[C@H](C)/C=C/C=C/C=C/1C` [rapamycin]: the “Binding to AIP” value in series [5] is reported as “does not bind”.

B1: AQSLAEDDVE peptide (human TOMM20 C-terminus) (peptide)
peptide: AQSLAEDDVE
notes: extreme C-terminus of human TOMM20; Only AEDDVE was visible in the crystal structure
B1: in series [6], binding was put at a Kd of 12.3 ± 0.5 µM, the dH is -6.77 kcal/mol and the “stoichiometry N” value turned out to be 0.87. For the same molecule, in series [7], the equilibrium dissociation constant (Kd) was found to be 16.6 µM, the dH was -4.51 kcal/mol and the stoichiometry N stood at 0.69. In [8], this molecule came in with a Kd of 22.5 µM, a dH of -6.07 kcal/mol and a stoichiometry N of 0.66.

B2: EDASRMEEVD peptide (human HSP90β C-terminus) (peptide)
peptide: EDASRMEEVD
notes: extreme C-terminus of human HSP90β; Only SRMEEVD was visible in the crystal structure
Take B2: in series [6], the Kd is 18.6 µM and 14.4 µM; the dH is -5.04 kcal/mol and -3.92 kcal/mol; the “stoichiometry N” value was 1.2 and 1.1. In [7], this molecule registered a Kd of 15.6 µM, a dH of -6.44 kcal/mol and a stoichiometry N of 0.96. In series [8], this molecule registered a Kd of 16.2 µM, a dH of -6.42 kcal/mol and a stoichiometry N of 0.98.

B3: GSGPTIEEVD peptide (human HSP70 C-terminus) (peptide)
peptide: GSGPTIEEVD
notes: C-terminus of human HSP70; also called HSP70 peptide
Regarding B3, in series [6], binding was put at a Kd of 18.1 ± 1.9 µM, the dH was -6.35 kcal/mol and the “stoichiometry N” value was 0.63. In series [7], the Kd is 22.8 µM, the dH was -5.46 kcal/mol and the stoichiometry N was found to be 0.66. Moreover, in [8], the dissociation constant (Kd) is 31.1 µM, the dH was -5.5 kcal/mol and the stoichiometry N turned out to be 0.84.

B4: TLEELDW peptide (PDE4A5) (peptide)
peptide: TLEELDW
notes: also called TLEELDW (hPDE4A5); PDE4A5 peptide
Regarding B4, in series [6], binding was characterised by a dissociation constant (Kd) of 64.5 ± 3.2 µM, the dH is -4.42 kcal/mol and the “stoichiometry N” value was 0.89.

B5: full-length AIP: full-length aryl hydrocarbon receptor interacting protein, tested on HSP90 ATPase activity (protein, UniProt O00170 1-330, looked up)
chain: MADIIARLREDGIQKRVIQEGRGELPDFQDGTKATFHYRTLHSDDEGTVLDDSRARGKPMELIIGKKFKLPVWETIVCTMREGEIAQFLCDIKHVVLYPLVAKSLRNIAVGKDPLEGQRHCCGVAQMREHSSLGHADLDALQQNPQPLIFHMEMLKVESPGTYQQDPWAMTDEEKAKAVPLIHQEGNRLYREGHVKEAAAKYYDAIACLKNLQMKEQPGSPEWIQLDQQITPLLLNYCQCKLVVEEYYEVLDHCSSILNKYDDNVKAYFKRGKAHAAVWNAQEAQADFAKVLELDPALAPVVSRELRALEARIRQKDEEDKARFRGIFSH
modifications: full-length
For the molecule B5, the “Effect on the ATPase activity of HSP90” value in series [9] is recorded as “did not influence”.

For the molecule DDTSRMEEVD (extreme C-terminus of human HSP90α) [DDTSRMEEVD peptide (human HSP90α C-terminus)], in series [6], binding was characterised by a dissociation constant (Kd) of 9.5 ± 0.6 µM, the dH was -3.53 kcal/mol and the “stoichiometry N” value was found to be 1.2.

For the molecule B6, in [10], the dissociation constant (Kd) stood at 13.3 ± 1.8 µM, the dH is -4.55 kcal/mol and the “stoichiometry N” value was found to be 0.3. Moreover, the “stoichiometry N” value in series [11] is 0.5.

B7: MEEVD peptide (HSP90) (peptide)
peptide: MEEVD
notes: extreme C-terminal five residues of HSP90; also called MEEVD (HSP90)
As for B7, in series [6], the Kd was determined as 12.6 ± 1.6 µM, the dH was -4.14 kcal/mol and the “stoichiometry N” value came to 1.
